In patent publication US7094891 (CENTER FOR TRANSLATION RESEARCH IN CANCER, dated 2006):

Target: T1, Human Replication Protein A 32 (RPA32) (human, UniProt P15927 1-270, limits assumed)
T1 construct: Used in the yeast two-hybrid system; also called Replication Protein A 32KD subunit; 32-kDa middle subunit of RPA
Assay: yeast two-hybrid system (method named in paragraph 31)

T1 sequence (P15927 whole entry): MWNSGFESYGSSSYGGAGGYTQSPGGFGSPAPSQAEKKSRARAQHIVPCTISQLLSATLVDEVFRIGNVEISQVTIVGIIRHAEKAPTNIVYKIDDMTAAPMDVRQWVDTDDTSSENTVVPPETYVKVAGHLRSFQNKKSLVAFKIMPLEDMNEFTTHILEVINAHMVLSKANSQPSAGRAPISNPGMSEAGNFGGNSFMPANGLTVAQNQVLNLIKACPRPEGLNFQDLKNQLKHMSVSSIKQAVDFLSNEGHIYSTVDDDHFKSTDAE

B1: replication protein A binding transcriptional activator 1 (RBT1) (other)
chain: MEGGLKRKHSDLEEEEERWEWSPAGLQSYQQALLRISLDKVQRSLGPRAPSLRRHVLIHNTLQQLQAALRLAPAPALPPEPLFLGEEDFSLSATIGSILRELDTSMDGTEPPQNPVTPLGLQNEVPPQPDPVFLEALSSRYLGDSGLDDFFLDIDTSAVEKEPARAPPEPPHNLFCAPGSWEWNELDHIMEIILGS
notes: Open reading frame of 196 amino acids
- binding result: binds
